# Assay results taken from CN111234012A.
# Target: HBV病毒 (HepAD38细胞上清制备的HBV病毒液)
# Experiment: cell-based or functional assay
substance,measurement,value
乙肝免疫球蛋白 (HBIG) (antibody),"HBV neutralisation on HepG2-NTCP cells, HBeAg in supernatant (IC50)",15 µg/mL
